In assay [1] the target is T1, human CD20 (human, UniProt P11836 1-297).
T1 construct: whole, on cells; Target always presented on cells; also called CD20 antigen
T1 sequence (looked up): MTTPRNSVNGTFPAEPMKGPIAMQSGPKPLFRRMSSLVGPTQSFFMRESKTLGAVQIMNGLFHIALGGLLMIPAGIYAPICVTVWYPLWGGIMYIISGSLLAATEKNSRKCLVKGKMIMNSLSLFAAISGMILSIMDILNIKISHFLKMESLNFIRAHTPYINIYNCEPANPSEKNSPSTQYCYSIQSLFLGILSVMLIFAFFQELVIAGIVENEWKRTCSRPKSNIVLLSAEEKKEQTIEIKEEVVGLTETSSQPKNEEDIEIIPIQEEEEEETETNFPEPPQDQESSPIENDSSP
As to the kind of experiment: anti-CD20 cellular ELISA, supernatant; rank 1 of 29. A general note: An ELISA detects its analyte on a solid surface through an enzyme-linked reagent.

Assay [2] concerns the target T1, human CD20. As to the kind of experiment: anti-CD20 cellular ELISA, supernatant; rank 7 of 29.
In assay [3] the target is T1, human CD20. The assay can be described thus: anti-CD20 cellular ELISA, supernatant; rank 3 of 29.
Assay [4] addresses T1, human CD20. As to the kind of experiment: anti-CD20 cellular ELISA, supernatant; rank 2 of 29.
Assay [5] concerns the target T1, human CD20. As to the kind of experiment: anti-CD20 cellular ELISA, supernatant; rank 6 of 29.
Assay [6] addresses T1, human CD20. The assay can be described thus: anti-CD20 cellular ELISA, supernatant; rank 5 of 29.
Assay [7] deals with T1, human CD20. The assay can be described thus: anti-CD20 cellular ELISA, supernatant; rank 4 of 29.
Assay [8] addresses T1, human CD20. As to the kind of experiment: anti-CD20 cellular ELISA, supernatant; rank 8 of 29.

Numbering of substitutions follows the chain as printed.

B1: anti-CD20 HuFR variant 1 (light chain BD22084, heavy chain BD20332) (antibody, human IgG1, kappa, V domains shown)
VH: QVQLVQSGAEVKKPGASVKVSCKASGYTFTSYNMHWVRQAPGKGLEWVGAIYPGNGDTSYNQKFKGRVTISADKSISTAYLQWSSLKASDTAMYYCARSHYGSNYVDYFDYWGQGTLVTVSS
VL: DIVMTQSPLSLPVTPGEPASISCRASSSLSFMHWYQQKPGQPPKLLIYATSNLASGIPARFSGSGSGTDFTLTISSLEPEDFAVYYCHQWSSNPLTFGQGTKVEIKR
notes: Full-length IgG, unpurified HEK-293 supernatant; also called LC & HC combination 1
Regarding B1, the binding result with human CD20 [1] is given as “binds”.

B2: anti-CD20 HuFR variant 7 (light chain BD22090, heavy chain BD20337) (antibody, human IgG1, kappa, V domains shown)
VH: B1 VH with K43Q, V48M
VL: DIVMTQSPLSLPVTPGEPASISCRASSSLSFMHWYLQKPGQSPQLLIYATSNLASGVPDRFSGSGSGTDFTLKISRVEAEDVGVYYCHQWSSNPLTFGQGTKVEIKR
notes: Full-length IgG, unpurified HEK-293 supernatant; also called LC & HC combination 7
B2: in the assay with human CD20 [2], the binding result was “binds”.

B3: anti-CD20 HuFR variant 3 (light chain BD22086, heavy chain BD20335) (antibody, human IgG1, kappa, V domains shown)
VH: QVQLVQSGAEVKKPGASVKVSCKASGYTFTSYNMHWVRQAPGKGLEWMGAIYPGNGDTSYNQKFKGRFTISRDNAKNSLYLQMNSLRAEDTAVYYCARSHYGSNYVDYFDYWGQGTLVTVSS
VL: B1 VL with P42A, K44R, I57V, A59D, E78Q, P79A, F82V
notes: Full-length IgG, unpurified HEK-293 supernatant; also called LC & HC combination 3
For the molecule B3, the binding result in the assay with human CD20 [3] was “binds”.

B4: anti-CD20 HuFR variant 2 (light chain BD22085, heavy chain BD20335) (antibody, human IgG1, kappa, V domains shown)
VH: B3 VH
VL: DIVMTQSPDSLAVSLGERATINCRASSSLSFMHWYQQKPGQAPRLLIYATSNLASGVPSRFSGSGSGTDFTLTISSLQPEDFATYYCHQWSSNPLTFGQGTKVEIKR
notes: Full-length IgG, unpurified HEK-293 supernatant; also called LC & HC combination 2
Turning to B4, the binding result in the assay with human CD20 [4] is “binds”.

B5: anti-CD20 HuFR variant 6 (light chain BD22089, heavy chain BD20335) (antibody, human IgG1, kappa, V domains shown)
VH: B3 VH
VL: EIVLTQSPATLSLSPGERATLSCRASSSLSFMHWYQQKPGQPPKLLIYATSNLASGVPSRFSGSGSGTDFTFTISSLQPEDIATYYCHQWSSNPLTFGQGTKVEIKR
notes: Full-length IgG, unpurified HEK-293 supernatant; also called LC & HC combination 6
Turning to B5, the binding result with human CD20 [5] is given as “binds”.

B6: anti-CD20 HuFR variant 5 (light chain BD22087, heavy chain BD20335) (antibody, human IgG1, kappa, V domains shown)
VH: B3 VH
VL: B5 VL with A9G, Q41K, P42A, D69E, F72L, E80D, I82F
notes: Full-length IgG, unpurified HEK-293 supernatant; also called LC & HC combination 5
Take B6: in the assay with human CD20 [6], the binding result was “binds”.

B7: anti-CD20 HuFR variant 4 (light chain BD22088, heavy chain BD20337) (antibody, human IgG1, kappa)
heavy: not shown
light: DIVMTQSPLSLPVTPGEPASISCRASSSLSFMHWYQQKPGQPPKLLIYATSNLASGVPSRFSGSGSGTDFTFTISSLQPEDIATYYCHQWSSNPLTFGQGTKVEIKRTVAAPSVFIFPPSDEQLKSGTASVVCLLNNFYPREAKVQWKVDNALQSGNSQESVTEQDSKDSTYSLSSTLTLSKADYEKHKVYACEVTHQGLSSPVTKSFNRGEC
notes: Full-length IgG, unpurified HEK-293 supernatant; also called LC & HC combination 4
Take B7: the binding result in the assay with human CD20 [7] is listed as “binds”.

B8: anti-CD20 HuFR variant 8 (light chain BD22095, heavy chain BD20337) (antibody, human IgG1, kappa)
heavy: not shown
light: B7 light with D1E, L9A, S10T, P12S, T14S, P18R, S20T, I21L
notes: Full-length IgG, unpurified HEK-293 supernatant; also called LC & HC combination 8
Take B8: in the assay with human CD20 [8], the binding result is reported as “binds”.

These data come from patent US20090285813A1 (MMRGLOBAL, published 2009).
